# Laboratory results published in article PMC10552758, “Identification and characterization of a novel β-lactamase gene, blaAMZ–1, from Achromobacter mucicolens” (Frontiers in Microbiology, 2023).
# Experiments:
# [1] = test system: CC1(C)S[C@@H]2[C@H](NC(=O)[C@H](N)c3ccc(O)cc3)C(=O)N2[C@H]1C(=O)O; assay: UV-VIS hydrolysis, initial rates, Michaelis-Menten fit; format: biochemical, Achromobacter mucicolens; settings: 10 mM phosphate pH 7.0, 37°C
# Text: (§1) UV-VIS hydrolysis, initial rates, Michaelis-Menten fit on AMZ-1
# [2] = test system: CC(=O)OCC1=C(C(=O)O)N2C(=O)[C@@H](NC(=O)Cc3cccs3)[C@H]2SC1; assay: as above; format: biochemical, Achromobacter mucicolens; settings: 10 mM phosphate pH 7.0, 37°C
# Text: as §1
# [3] = test system: CC1(C)S[C@@H]2[C@H](NC(=O)Cc3ccccc3)C(=O)N2[C@H]1C(=O)O; assay: as above; format: biochemical, Achromobacter mucicolens; settings: 10 mM phosphate pH 7.0, 37°C
# Text: as §1
# [4] = test system: CO[C@@]1(NC(=O)Cc2cccs2)C(=O)N2C(C(=O)O)=C(COC(N)=O)CS[C@@H]21; assay: as above; format: biochemical, Achromobacter mucicolens; settings: 10 mM phosphate pH 7.0, 37°C
# Text: as §1
# AMZ-1 = biological target: T1, AMZ-1 (Achromobacter mucicolens, UniProt Z9OND0BR39); assay: nitrocefin hydrolysis, UV-VIS spectrophotometry; format: biochemical
# T1 construct: ORF without signal peptide (cleavage 26/27) in pColdI, E. coli BL21(DE3); His-tag removed with enterokinase
Compound,Km [1] [µM],kcat [1] [s⁻¹],kcat/Km [1] [M⁻¹ s⁻¹],Km [2] [µM],kcat [2] [s⁻¹],kcat/Km [2] [M⁻¹ s⁻¹],Km [3] [µM],kcat [3] [s⁻¹],kcat/Km [3] [M⁻¹ s⁻¹],Km [4] [µM],kcat [4] [s⁻¹],kcat/Km [4] [M⁻¹ s⁻¹],IC50 (AMZ-1) [µM]
AMZ-1 (Achromobacter mucicolens),14.65 ± 1.274,0.0947 ± 0.005,6780 ± 1650,564.23 ± 56.35,5.88 ± 0.39,10400 ± 40,108.84 ± 8.12,3.93 ± 0.13,36300 ± 150,18.16 ± 3.88,0.0805 ± 0.0137,4540 ± 660,–
C[C@]1(Cn2ccnn2)[C@H](C(=O)O)N2C(=O)C[C@H]2S1(=O)=O [tazobactam],–,–,–,–,–,–,–,–,–,–,–,–,1090
NC(=O)[C@@H]1CC[C@@H]2CN1C(=O)N2OS(=O)(=O)O [avibactam],–,–,–,–,–,–,–,–,–,–,–,–,0.00082
